Experimental data reported in patent US20200147199A1.
Substitutions are numbered along the chain they refer to.

B1: Z002 (MEX18_27) (antibody, V domains shown)
VH: EVQLLESGGGLVQPGGSLRLSCATSGFTFSTYAMSWVRQAPGKGLEWVSSFSGVDDSTYYAESVKGRFTISRDNSKNTVYLQMTRLRAEDTAVYYCAKDRGPRGVGELFDSWGQGTLVTVSS
VL: DIQMTQSPSTLSASVGDRVTMTCRASQSINRWLAWYQQKPGKAPKLLIYTTSTLKSGVPSRFSGSGSGTEFTLTISSLQPDDFATYYCQHFHSVPWTFGQGTKVEIK
B2: Z017 (MEX84_p2-58) (antibody, V domains shown)
VH: QVQLVQSGAGMRKPGASVKVSCKASGYSFNDYYIHWVRQAPGQGLEWMGWINPKSGFTNYAQRFQGRVTMTGDTSNSVAYMELTRLTSDDTAVYYCARGGRINAPLGFDPWGQGTLVTVSS
VL: EIVLTQSPDTLSLSPGETATLSCRASQSIGSISLGWYQQKFGQAPRLLIYGASTRATGTPDRFSGSGSETDFTLTISRLEPEDSAVYYCQQYVSSPLRFGGGTKVEIK
B3: Z034 (BRA112_09) (antibody, V domains shown)
VH: EVQLLESGGGLAQPGGSLRLSCETSGFTFRSYGMGWVRQAPGKGLEWVSSIYISGDSTYYAASVKGRFTISRDNSKSTLYLQMDRLTAEDTAVYYCVRDRIQGGFGELYRYWGQGTLVTVSS
VL: B1 VL with I29V, R31K, T50E, T53I, K55E, P59S, F91Y, S93G, V94Y
B4: Z036 (BRA112_91) (antibody, V domains shown)
VH: EVQLLESGGDLVQPGGSLRLSCAASGFTFSTYGMAWVRQAPGKGLEWLSSISSVDDSKYYAASVKGRFTISRDNSRNTLYLHMNSLRVDDTAVYYCAKDRIPHGLGELYANWGQGTLVTVSS
VL: DIQMTQSPSTLSASVGDRVTITCRASQSISGWLAWYQQKPGKAPRLLMHKASNLYSGVPSRFSGSGSGTEFTLTISSLQPDDFATYYCQHYHSYPYTFGQGTKVEIK
B5: Z003 (MEX18_58) (antibody, V domains shown)
VH: EVQLLESGGGLVQPGGSLRLSCATSGFTFTTFAMSWVRQAPGKGLEWVSSISGADDSTYYAASVKGRFTISRDNSRSTLFLQMNSLRAEDTAVYYCAKDRGPRGVGELFDSWGQGTLVTVSS
VL: B1 VL with M21I, N30S, R31K, K45R, H92F
B6: Z050 (BRA138_28) (antibody, V domains shown)
VH: QVQLVQSGAEVKKPGSSVKVSCKAPGGTFSRYSIAWVRQAPGQGLEWMGGINPTFTTPNYAQKFQGRVTITADESTNTAYLDLSSLRSEDTAVYYCARFRYYYESGGYSDASPYYLDYWGQGTLVTVSS
VL: EIVLTQSPATLSLSPGERVTLSCRASQSVSSYLAWYQQKPGQAPRLLIYDASNRATGIPARFTGSGSGTDFTLTISSLEPEDFAVYYCQQRSNWPLTFGGGTKVEIK
B7: Z051 (BRA138_59) (antibody, V domains shown)
VH: QVQLQESGPGLVKPSQTLSLTCTVSGVSISSGGYYYSWFRQLPGKGLEWIGHIYYTGNTHYNPSLRSRLTISVDTSKNQFSLKLSSVTAADTARYYCARAWCEYAAYCWFDPWGRGTLVTVSS
VL: EIVLTQSPGTLSLSPGERATLSCRASQSVTSSYLAWYQHKPGQAPRLLIYGASSRAPGIPDRFSGSGSGTDFTLTISRLEPEDFAVYWCQQYGRSPFTFGQGTKLEIK
B8: Z052 (BRA138_62) (antibody, V domains shown)
VH: QVQLQESGPGLVKPSQTLSLTCTVSGGSITGGVYYWNWIRHHPGKGLEWIGYMFYSGDTDYNPSLRSRVTISGDTSKNKFSLNLNSVTAADTAVYYCARAGFDYGSPVSAFDIWGQGTLVTVSS
VL: EIVLTQSPATLSLSPGERATLSCRASQSVSSTYLVWYQQKPGQAPRLLIYGASSRATGIPDRFSGSGSGTDFTLTISRLEPEDFAVYFCQQYAHSPRGYTFGQGTKLEIK
B9: Z053 (BRA138_65) (antibody, V domains shown)
VH: QLQLQESGPGLVKPSETLSLTCTVSGGSISSYNYYWGWIRQPPGKGLEFIGSIYYTGSTYYNPSLRSRVTISVDTSKNQFSLKLTSVTAADTAVYYCARHGPGMGHNWYFDLWGRGTLVTVSS
VL: EIVLTQSPATLSLSPGERATLSCRASQSISSYLAWYQQKPGQAPRLLIYDASNRAPGIPARFSGSGSGTDFTLTISSLEPEDFAVYYCQQRSTWLTFGGGTKVEIK
B10: Z055 (MEX84_p4-61) (antibody, V domains shown)
VH: EVQLVQSGAEVKKPGASVKVSCKASGYTFSGYYIHWLRQAPGQGLEWMGWINSNSGGADSGPRFHGRVTMTRDTSINTAYLELTNLRSDDTAVYYCARRTYYDTRFPYWYFDLWGRGTLVTVSS
VL: AIRMTQSPSSLSASVGDRVTITCRASQDIGSYLNWYQQKPGKAPNVLISAASTLQSGVPSRISGIGSGTDFTLTISSLQPEDFATYYCQQSLSAPYTFGQGTKLEIK
B11: Z056 (MEX84_p2-94) (antibody, V domains shown)
VH: EVQLVQSGAEVKKPGASVKVSCKASGNTFMGYYFHWVRQAPGQGLEWMGWINPNSGHANIAQTFQGRVTMTRDPSITTAYMELSRLRSDDTAVFYCARGGMLGQLWALDNWGQGTLVTVSS
VL: DIQMTQSPSTLSASVGDRVTITCRASQSISHWLAWYQQRPGEAPKLLIYQASTLESGVPSRFSGSGSGTEFTLSISSLQPDDFATYYCQQYQSSPYTFGQGTKLEIK
B12: Z057 (MEX84_p4-54) (antibody, V domains shown)
VH: EVQLVQSGAEVKRPGASVKVSCKASGYTFADYYIHWVRQAPGLGLEWMGWINPKTGFSHYEQTFQGRVTMARDTSIPAAYMELSSLKSDDTAIYYCARGGRINVAEALRYWGQGSLVTVSS
VL: DIQMTQSPSTLSTFVGDRVTITCRASQTIGDWLAWYQQKPGKAPKLLISKATRLESGVPSRFSGSGSETEFSLTINSLQPDDVAAYYCQQYMSYPWTFGQGTKLEIK
B13: Z059 (MEX84_p4-34) (antibody, V domains shown)
VH: EVQLVQSGAEVKTPGSSVKVSCKTSGGTFSNFAITWVRQAPGQGLEWMGGIIPLFGITNYTQKFQGRVTITTDESKTTAYMDLSGLRSEDTAVYFCARGRDSSGRLLDHWGQGTLVTVSS
VL: EIVMTQSPATLSVSPGERATLSCRASQTVNRNLAWYQQKPGQAPRLLIYAASARATGVPARFSGSGSGTEFTLTISSLQSEDFVVYYCQQYNNWPPLTFGGGTKLEIK
B14: Z005 (MEX18_13) (antibody, V domains shown)
VH: EVQLLESGGGLVQPGGSLRLSCAASGFTFSSYAMSWVRQAPGKGLEWVSSFSGIDDSTWYADSVKGRFTISRDNSKSTLYLQMNSLRAEDTAVYYCAKDRLVRGFAEVLDYWGRGTLVTVSS
VL: DIQMTQSPSSLSASVGDRVTITCRASQDISKYLAWYQQRPGKVPNLLIYTASTLQSGVPSRFSGSGSGTHFTLTISSLQPEDVATYYCQKYNSVPWTFGQGTKVEIK
B15: Z061 (BRA112_36) (antibody, V domains shown)
VH: EVQLVESGGGVVQPGRSLRLSCAASGFTFSISTIHWVRQAPGKGLEYVVVISHDGNTKYYADSVKGRFIISRDNSKNTVFLQMNSLRPVDTAVYYCARGEVGYFDLWGRGTLVTVSS
VL: EIVLTQSPATLSLSPGERATLSCRASQSVSSFLAWYQQKPGQPPRLLIYDASTRATGIPARFSGSGSGTDFTLTISSLEPEDFAVYYCQQRSNWPPITFGQGTRLEIK
B16: Z062 (BRA112_70) (antibody, V domains shown)
VH: EVQLVESGGGVVQPGRSLRLSCAASGFSFSSHAMYWVRQAPGKGLEWVAIVSYDGSTKNYADSVKGRFTISRDNSKNTIYLHLNSLRAEDTAVYFCAREVDGIYGYLHYWGQGTLVTVSS
VL: EIVLTQSPATLSLSPGERATLSCRARQNVRNFLAWYQQKPGQAPRLLIYDASNRATDIPARFSGSGSGTDFTLTISSLEPEDFAVYYCQQRSYSITFGQGTRLEIK
B17: Z007 (MEX105_50) (antibody, V domains shown)
VH: EVQLLESGGGLVRPGGSLRLSCTASGFTFRRYAMAWVRQAPGKGLEWVSLIYDGDDSTYYAKSVKGRFAISRDNSKNTLSLQMNSLRAEDTAVYYCVKDRDNGWSSIVDWGQGTLVTVSS
VL: DIQMTQSPSTLSASVGDRVTITCRASHSISGWLAWYQQKPGKAPKLLIYQASILESGVPSRFSGSGSGTEFTLTIGSLQPEDFATYFCQQYSTFWTFGQGTKVEIK
B18: Z008 (MEX105_60) (antibody, V domains shown)
VH: B17 VH with Y32F, Y52W, D53N, K62E, K65R, A69T, K76H, N84R, V93I
VL: B17 VL with H27Q, S28T, S30G, G31N, I53V, G76S
B19: Z009 (MEX105_64) (antibody, V domains shown)
VH: B17 VH with D53N, K62E, A69T, I70V, K76Q, V93I, K98R
VL: B17 VL with H27R, S28T, S30G, G31S, S56G, G66V, G76R
B20: Z011 (MEX105_15) (antibody, V domains shown)
VH: EVQLLESGGGLVQPGGSLRLSCAASGFTFRTYAMSWVRQPPGKGLEWVSSISAREDSTYFAASVRGRFTISRDNSKNTLYLQMNNLRAEDTALYYCAKDRLQLGVGELYESWGQGTLVTVSS
VL: B1 VL with M21I, S28N, R31S, T50M, T51A, T53S, K55Q, I75V, F91Y, V94Y
B21: Z013 (MEX18_84) (antibody, V domains shown)
VH: EVQLLESGGGLVQPGGSLRLSCAASGFTFTSYAMNWVRQAPGKGLEWVSGIGGRGAIAGDGSIYYADSVKGRFTISRDNSKNIVYLQMNGLRVEDTAVYYCAKDRVAFDGFHVWGQGTLVTVSS
VL: DIQMTQSPPTLSASVGDRVTITCRASQSISSWLAWYQQKPGKAPKLLIYKASSLESGVPSRFSGSGSGTEFSLTISSLQPEDFATYYCQQYNSYPWTFGQGTKVEIK
B22: Z016 (MEX84_p2-55) (antibody, V domains shown)
VH: QVQLVQSGAEVKKPGASVKLSCKASGYTFTSYYVHWVRQAPGQGLEWMGIINPGNNFVSFAQNFYDRATMTRDTSTNTVYMELTNLQSEDTAVYYCARTLVAPSAQSMYYFDFWGQGTLVTVSS
VL: EIVLTQSPGTLSLSPGERGTLSCRASQYITTGHFAWYQQKPGRAPRLLIYGASVRATGVPDRFSGSGAETDFTLTISRLDPEDVGVYYCQQYGSSPVTFGPGTKVDIK
B23: Z004 (MEX18_89) (antibody, V domains shown)
VH: EVQLLESGGGLVQPGGSLRLTCATSGFTFRDYAMSWVRQAPGKGLEWVSSYSGIDDSTYYADSVKGRFTISRDNSKSTLSLHMNSLRAEDSALYFCAKDRGPRGVGELFDSWGQGTLVTVSS
VL: B1 VL with M21I, N30S, R31K, H92Y

target: T1, ZIKV E Domain III ([..]), polyhistidine-AviTag, produced in HEK-293-6E cells (ZIKV); experiment: ELISA on coated ZIKV EDIII; conditions: remark: other sources report otherwise

Binder	EC50
B1	0.0252 µg/mL
B2	> 10 µg/mL
B3	0.0235 µg/mL
B4	0.0172 µg/mL
B5	0.0255 µg/mL
B6	0.0303 µg/mL
B7	1.86 µg/mL
B8	0.0131 µg/mL
B9	1.68 µg/mL
B10	1.88 µg/mL
B11	0.982 µg/mL
B12	0.0828 µg/mL
B13	0.61 µg/mL
B14	0.216 µg/mL
B15	0.311 µg/mL
B16	0.208 µg/mL
B17	0.0346 µg/mL
B18	0.0326 µg/mL
B19	0.0284 µg/mL
B20	0.038 µg/mL
B21	> 10 µg/mL
B22	0.0724 µg/mL

target: T1, ZIKV E Domain III ([..]), …; experiment: ELISA, biotinylated Z004 on coated ZEDIII, streptavidin-HRP; conditions: remark: other sources report otherwise

Binder	EC50
B23	0.16 µg/mL
